Source: publication PMC6322571, “CARK1 phosphorylates subfamily III members of ABA receptors” (Journal of Experimental Botany, 2018)

B1: GST-RCAR12 (receptor, Arabidopsis thaliana, UniProt Q8VZS8 1-221, looked up)
chain: MANSESSSSPVNEEENSQRISTLHHQTMPSDLTQDEFTQLSQSIAEFHTYQLGNGRCSSLLAQRIHAPPETVWSVVRRFDRPQIYKHFIKSCNVSEDFEMRVGCTRDVNVISGLPANTSRERLDLLDDDRRVTGFSITGGEHRLRNYKSVTTVHRFEKEEEEERIWTVVLESYVVDVPEGNSEEDTRLFADTVIRLNLQKLASITEAMNRNNNNNNSSQVR
notes: ABA receptor RCAR12 (PYL1), Arabidopsis, subfamily III; also called PYL1; source: E. coli Rosetta (DE3), purified as GST-tag protein; not shown: GST, N-terminal, kept
B2: GST-RCAR13 (receptor, Arabidopsis thaliana, UniProt Q9SSM7 1-209, looked up)
chain: MNLAPIHDPSSSSTTTTSSSTPYGLTKDEFSTLDSIIRTHHTFPRSPNTCTSLIAHRVDAPAHAIWRFVRDFANPNKYKHFIKSCTIRVNGNGIKEIKVGTIREVSVVSGLPASTSVEILEVLDEEKRILSFRVLGGEHRLNNYRSVTSVNEFVVLEKDKKKRVYSVVLESYIVDIPQGNTEEDTRMFVDTVVKSNLQNLAVISTASPT
notes: ABA receptor RCAR13, Arabidopsis, subfamily III; source: E. coli Rosetta (DE3), purified as GST-tag protein; not shown: GST, N-terminal, kept
B3: GST-RCAR14 (receptor, Arabidopsis thaliana, UniProt O80992 1-190, looked up)
chain: MSSSPAVKGLTDEEQKTLEPVIKTYHQFEPDPTTCTSLITQRIHAPASVVWPLIRRFDNPERYKHFVKRCRLISGDGDVGSVREVTVISGLPASTSTERLEFVDDDHRVLSFRVVGGEHRLKNYKSVTSVNEFLNQDSGKVYTVVLESYTVDIPEGNTEEDTKMFVDTVVKLNLQKLGVAATSAPMHDDE
notes: ABA receptor RCAR14, Arabidopsis, subfamily III; source: E. coli Rosetta (DE3), purified as GST-tag protein; not shown: GST, N-terminal, kept

The binders below were run against T1, His-CARK1-KD (CARK1 kinase domain, residues 50-353) (Arabidopsis thaliana, UniProt Q9LUT0 50-353) (assay: pull-down; GST-RCARs bound to glutathione Sepharose 4B resin; His-CARK1-KD or His-CARK1-KD^N204A co-incubated 1 h at room temperature; 50 ug of each protein; SDS-PAGE and anti-His blot). Conditions: both partners purified.
T1 construct: Cytosolic ABA Receptor Kinase 1 (CARK1), Arabidopsis, kinase domain, residues 50-353; also called Cytosolic ABA Receptor Kinase 1 kinase domain; source: E. coli Rosetta (DE3), purified as previously described (Zhang et al., 2018)
T1 sequence (looked up): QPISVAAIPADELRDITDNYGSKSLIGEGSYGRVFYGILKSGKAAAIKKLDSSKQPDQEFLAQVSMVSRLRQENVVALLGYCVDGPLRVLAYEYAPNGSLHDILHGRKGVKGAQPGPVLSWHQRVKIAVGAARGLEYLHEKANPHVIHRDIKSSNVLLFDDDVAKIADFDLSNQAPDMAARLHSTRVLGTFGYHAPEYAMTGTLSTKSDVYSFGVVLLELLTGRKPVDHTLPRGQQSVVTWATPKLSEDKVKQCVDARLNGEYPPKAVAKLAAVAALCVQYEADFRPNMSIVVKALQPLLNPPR

Binding result, binds:
B1, B2, B3
